Measurements as given in patent US20120201811A1 (US Dept. of Health and Human Services, published 2012).
Where two headings read alike, the source gives them in different places.

T1: HIV-1 Rev (clone BH10) (HIV-1 (isolate BH10), UniProt P04616 1-116)
T1 construct: mature; also called full-length Rev; recombinant HIV-1 Rev
T1 sequence: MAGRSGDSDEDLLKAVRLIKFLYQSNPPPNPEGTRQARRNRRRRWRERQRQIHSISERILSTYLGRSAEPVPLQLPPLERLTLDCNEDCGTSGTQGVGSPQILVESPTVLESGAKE

B1: Fab SJS-R1 (chimeric rabbit/human anti-Rev Fab) (Fab, V domains shown)
VH: QEQLVESGGRLVTPGTALTLTCKVSGFSLSGFWLNWVRQAPGKGLEWVGAIYRGSGSEWYASWAKGRFTISDTSTTVTLKLTSPTTEDTATYFCAADTTDNGYFTIWGPGTLVTVSS
VL: ELVMTQTPSSVSEPVGGTVTIKCQASQSISSWLSWYQQKPGQPPKLLIYDASNLASGVPSRFMGSGSGTEYTLTISGVQREDAATYYCLGGYPAASYRTAFGGGTELEIIR
notes: also called SJS-R1 Fab; Rev Fab SJS-R1
B2: scFv SJS-R1 (mature SJS-R1 scFv) (scFv)
scFv: AELVMTQTPSSVSEPVGGTVTIKCQASQSISSWLSWYQQKPGQPPKLLIYDASNLASGVPSRFMGSGSGTEYTLTISGVQREDAATYYCLGGYPAASYRTAFGGGTELEIIGGSSRSSSSGGGGSGGGGQEQLVESGGRLVTPGTALTLTCKVSGFSLSGFWLNWVRQAPGKGLEWVGAIYRGSGSEWYASWAKGRFTISDTSTTVTLKLTSPTTEDTATYFCAADTTDNGYFTIWGPGTLVTVSSHHHHHH
notes: also called anti-Rev scFv; Rev scFv
B3: Fab/Rev complex (1:1 complex of Fab SJS-R1 and HIV-1 Rev) (other)
light: ELVMTQTPSSVSEPVGGTVTIKCQASQSISSWLSWYQQKPGQPPKLLIYDASNLASGVPSRFMGSGSGTEYTLTISGVQREDAATYYCLGGYPAASYRTAFGGGTELEIIRTVAAPSVFIFPPSDEQLKSGTASVVCLLNNFYPREAKVQWKVDNALQSGNSQESVTEQDSKDSTYSLSSTLTLSKADYEKHKVYACEVTHQGLSSPVTKSFNRGEC
heavy: QEQLVESGGRLVTPGTALTLTCKVSGFSLSGFWLNWVRQAPGKGLEWVGAIYRGSGSEWYASWAKGRFTISDTSTTVTLKLTSPTTEDTATYFCAADTTDNGYFTIWGPGTLVTVSSASTKGPSVFPLAPSAKSTSGGTAALGCLVKDYFPEPVTVSWNSGALTSGVHTFPAVLQSSGLYSLSSVVTVPSSSLGTQTYICNVNHKPSNTKVDKKAEPKSCDKTRGHHHHHH
chain: T1 sequence
notes: mature; also called Fab/Rev immune complex

How the values were obtained:
HIV-1 Rev (clone BH10) [1] = target: T1, HIV-1 Rev (clone BH10); test: SPR (Biacore X), Rev immobilized on CM5 chip, Fab as analyte, 1:1 Langmuir global fit
HIV-1 Rev (clone BH10) [2] = target: T1, HIV-1 Rev (clone BH10); test: SPR (Biacore X), Rev immobilized on CM5 chip, Fab as analyte, Kd=kd/ka
HIV-1 Rev (clone BH10) [3] = target: T1, HIV-1 Rev (clone BH10); test: densitometry of Coomassie-stained SDS-PAGE of the Ni-purified complex
HIV-1 Rev (clone BH10) [4] = target: T1, HIV-1 Rev (clone BH10)
[5] = target: the molecule itself; test: sedimentation equilibrium ultracentrifugation, gradient fitted as a monomer-dimer system (self-association of the Fab/Rev complex); self-association of the 1:1 Fab/Rev complex, monomer-dimer fit of sedimentation equilibrium

Binder	koff (HIV-1 Rev (clone BH10) [1]) [s⁻¹]	kon (HIV-1 Rev (clone BH10) [1]) [M⁻¹ s⁻¹]	Kd (HIV-1 Rev (clone BH10) [2]) [nM]	molar ratio in the purified complex (HIV-1 Rev (clone BH10) [3])	koff (HIV-1 Rev (clone BH10) [4]) [s⁻¹]	kon (HIV-1 Rev (clone BH10) [4]) [M⁻¹ s⁻¹]	Kd [5] [µM]
B1	8e-06	220000	~0.04	0.9 mol Rev per mol Fab	8.3e-06	228000	–
B2	–	–	–	0.87 mol Rev per mol scFv	–	–	–
B3	–	–	–	–	–	–	~100
